Here are results for one molecule from paper PMC4132707, “A dimeric state for PRC2” (Nucleic Acids Research, 2014).

This test concerns the target T1, MBP-EZH2 (uncleavable MBP fusion, three-alanine linker) (human, UniProt Q15910-2 2-751).
T1 construct: forward primer starts at codon 2 after the three alanines, reverse primer holds the stop codon; A short linker of three alanine residues connects MBP and EZH2; no PreScission site between them; Present as a subunit of the co-purified PRC2 5m complex; also called tagged EZH2; MBP-tagged EZH2; source: Sf9, baculovirus, co-expressed and co-purified with the other PRC2 subunits (amylose resin, …)
The experiment in a line: pull-down; called co-immunoprecipitation by the paper; 0.1 mg purified nucleic acid-free PRC2 5m co-expressed with both MBP-EZH2 (uncleavable) and untagged EZH2, bound to amylose beads 30 min at 4°C in 10 mM Tris-HCl pH 7.5, 250 mM NaCl, 1 mM TCEP, washed twice, eluted with 20 mM maltose; immunoblotting (semi-quantitative for EZH2). The following applies: both partners purified. A general note: In western blotting, separated proteins are transferred to a membrane and probed.

T1 sequence (Q15910 other isoform, or with tags, fused parts or gaps): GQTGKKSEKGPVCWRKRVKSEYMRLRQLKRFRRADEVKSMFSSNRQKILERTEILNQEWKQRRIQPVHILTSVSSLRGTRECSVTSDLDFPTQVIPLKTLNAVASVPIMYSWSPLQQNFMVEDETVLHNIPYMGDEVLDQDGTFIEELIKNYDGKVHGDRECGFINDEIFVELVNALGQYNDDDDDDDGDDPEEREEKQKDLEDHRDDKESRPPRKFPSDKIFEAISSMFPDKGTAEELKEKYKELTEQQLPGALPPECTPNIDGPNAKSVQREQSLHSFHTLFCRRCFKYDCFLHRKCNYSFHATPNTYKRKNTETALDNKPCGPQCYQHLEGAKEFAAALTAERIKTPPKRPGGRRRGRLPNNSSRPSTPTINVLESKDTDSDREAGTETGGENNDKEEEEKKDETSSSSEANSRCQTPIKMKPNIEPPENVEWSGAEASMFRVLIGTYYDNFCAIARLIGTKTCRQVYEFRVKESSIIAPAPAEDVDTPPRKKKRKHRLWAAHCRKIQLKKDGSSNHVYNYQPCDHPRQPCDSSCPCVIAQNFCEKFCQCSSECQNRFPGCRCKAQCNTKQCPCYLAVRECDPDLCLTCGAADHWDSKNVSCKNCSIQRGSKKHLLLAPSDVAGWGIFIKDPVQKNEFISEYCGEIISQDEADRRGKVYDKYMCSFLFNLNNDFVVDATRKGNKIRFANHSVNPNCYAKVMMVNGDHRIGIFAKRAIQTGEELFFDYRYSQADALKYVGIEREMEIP

B1: EZH2, untagged (cleavable MBP tag removed) (natural protein)
chain: not shown
notes: forward primer starts at codon 2 (GQTGKKS), reverse primer holds the stop codon; Present as a subunit of the co-purified PRC2 complex, never isolated alone; also called untagged EZH2; source: Sf9, baculovirus, co-expressed and co-purified with the other PRC2 subunits (amylose resin, PreScission cleavage, SEC); not shown: His6, N-terminal, cleaved; MBP, N-terminal, cleaved
For the molecule B1, the “ratio of tagged to untagged EZH2 in the MBP pull down” value was ~3 tagged:untagged.
